doi:10.1101/2021.07.31.454588

Target: mCherry-LacRnls-IE1 1–540 (human herpesvirus 6B (HHV-6B))
Test: LacO/LacR tethering assay

NBS1 (nibrin, NBN), endogenous (from UniProt O60934 1-754) (natural protein)
percent of mCherry-LacRnls fusion foci colocalized with NBS1 at the LacO array: 81%
